Data from patent publication US20120178908A1 (Novo Nordisk, published 2012).
Residue numbers refer to the chain shown, from its start.

T1: TLT-1 18-188 relipidated in 20:80 PS:PC vesicles (human, UniProt Q86YW5 18-188)
T1 sequence: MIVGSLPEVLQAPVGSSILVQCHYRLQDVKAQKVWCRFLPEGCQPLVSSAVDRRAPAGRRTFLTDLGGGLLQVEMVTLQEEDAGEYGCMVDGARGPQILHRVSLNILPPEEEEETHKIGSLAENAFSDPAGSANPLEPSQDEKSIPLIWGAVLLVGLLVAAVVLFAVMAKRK

T2: TLT-1 receptor on the surface of activated human platelets (human, UniProt Q86YW5 16-311)
T2 sequence: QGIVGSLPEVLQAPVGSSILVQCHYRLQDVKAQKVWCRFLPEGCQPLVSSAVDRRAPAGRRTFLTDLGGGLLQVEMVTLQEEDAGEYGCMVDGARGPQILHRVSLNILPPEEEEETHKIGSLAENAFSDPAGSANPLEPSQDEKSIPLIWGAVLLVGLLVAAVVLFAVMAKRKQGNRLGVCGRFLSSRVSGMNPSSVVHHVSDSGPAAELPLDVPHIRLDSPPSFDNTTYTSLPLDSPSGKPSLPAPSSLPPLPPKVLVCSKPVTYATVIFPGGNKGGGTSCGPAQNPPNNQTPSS

B1: Fab 0012-VH-CH1-L4a-hTF.1-219; LC-HPC4 (other)
heavy: EVKLLESGGGLVQPGGSLKLSCAASGFDFSRYWMTWVRQAPGKGLEWIGEINPDSSTINYTPSLKDKFIISRDNAKNTLYLQMSEVRSEDTALYYCASGVFTSWGQGTLVTVSAASTKGPSVFPLAPCSRSTSESTAALGCLVKDYFPEPVTVSWNSGALTSGVHTFPAVLQSSGLYSLSSVVTVPSSSLGTKTYTCNVDHKPSNTKVDKRVESKGSGGGGSGGGGSGGGGSSGTTNTVAAYNLTWKSTNFKTILEWEPKPVNQVYTVQISTKSGDWKSKCFYTTDTECDLTDEIVKDVKQTYLARVFSYPAGNVESTGSAGEPLYENSPEFTPYLETNLGQPTIQSFEQVGTKVNVTVEDERTLVRRNNTFLSLRDVFGKDLIYTLYYWKSSSSGKKTAKTNTNEFLIDVDKGENYCFSVQAVIPSRTVNRKSTDSPVECMGQEKGEFRE
light: DVVMTQTPLSLPVSLGDQASISCRSSQSLVHRNGNTYFHWCLQKPGQSPKLLIYKVSNRFSGVPDRFSGSGSGTDFTLKISRVEAEDLGVYFCSQSTHVPYTFGGGTKLEIKRTVAAPSVFIFPPSDEQLKSGTASVVCLLNNFYPREAKVQWKVDNALQSGNSQESVTEQDSKDSTYSLSSTLTLSKADYEKHKVYACEVTHQGLSSPVTKSFNRGECEDQVDPRLIDGK
B2: Fab 0082-VH-CH1-L10-TF;LC-HPC4 (other)
VH-CH1-linker-TF: EVKLLESGGGLVQPGGSLKLSCAASGFDFSRYWMTWVRQAPGKGLEWIGEINPDSSTINYAPSLKDKFIISRDNAKNTLYLQMSEVRSEDTALYYCASGVFTSWGQGTLVTVSAASTKGPSVFPLAPCSRSTSESTAALGCLVKDYFPEPVTVSWNSGALTSGVHTFPAVLQSSGLYSLSSVVTVPSSSLGTKTYTCNVDHKPSNTKVDKRVESKYGPPSPSSPAPEFLGGSGTTNTVAAYNLTWKSTNFKTILEWEPKPVNQVYTVQISTKSGDWKSKCFYTTDTECDLTDEIVKDVKQTYLARVFSYPAGNVESTGSAGEPLYENSPEFTPYLETNLGQPTIQSFEQVGTKVNVTVEDERTLVRRNNTFLSLRDVFGKDLIYTLYYWKSSSSGKKTAKTNTNEFLIDVDKGENYCFSVQAVIPSRTVNRKSTDSPVECMGQEKGEFRE
light chain-HPC4: B1 light with C41A
B3: Fab 0061-VH-CH1-L10-TF;LC-HPC4 (other)
VH-CH1-linker-TF: B2 VH-CH1-linker-TF with A61N
light chain-HPC4: B1 light with C41A
B4: Fab 0012-LC-L0-hTF.1-219; VH-CH1-HPC4 (other)
light: DVVMTQTPLSLPVSLGDQASISCRSSQSLVHRNGNTYFHWCLQKPGQSPKLLIYKVSNRFSGVPDRFSGSGSGTDFTLKISRVEAEDLGVYFCSQSTHVPYTFGGGTKLEIKRTVAAPSVFIFPPSDEQLKSGTASVVCLLNNFYPREAKVQWKVDNALQSGNSQESVTEQDSKDSTYSLSSTLTLSKADYEKHKVYACEVTHQGLSSPVTKSFNRGECSGTTNTVAAYNLTWKSTNFKTILEWEPKPVNQVYTVQISTKSGDWKSKCFYTTDTECDLTDEIVKDVKQTYLARVFSYPAGNVESTGSAGEPLYENSPEFTPYLETNLGQPTIQSFEQVGTKVNVTVEDERTLVRRNNTFLSLRDVFGKDLIYTLYYWKSSSSGKKTAKTNTNEFLIDVDKGENYCFSVQAVIPSRTVNRKSTDSPVECMGQEKGEFRE
heavy: EVKLLESGGGLVQPGGSLKLSCAASGFDFSRYWMTWVRQAPGKGLEWIGEINPDSSTINYTPSLKDKFIISRDNAKNTLYLQMSEVRSEDTALYYCASGVFTSWGQGTLVTVSAASTKGPSVFPLAPCSRSTSESTAALGCLVKDYFPEPVTVSWNSGALTSGVHTFPAVLQSSGLYSLSSVVTVPSSSLGTKTYTCNVDHKPSNTKVDKRVESKEDQVDPRLIDGK
B5: Fab 0023-LC-L3-TF;VH-CH1-HPC4 (other)
light chain-linker-TF: DIVVSQSPSSLAVSAGEKVTMSCKSSQSLLNSRTRKNYLAWYQQKPGQSPKLLIYWASTRESGVPDRFTGSGSGTDFTLTISSVQAEDLAVYYCKQSYNLLTFGAGTKLELKRTVAAPSVFIFPPSDEQLKSGTASVVCLLNNFYPREAKVQWKVDNALQSGNSQESVTEQDSKDSTYSLSSTLTLSKADYEKHKVYACEVTHQGLSSPVTKSFNRGECGSGGGGSGGGGSSGTTNTVAAYNLTWKSTNFKTILEWEPKPVNQVYTVQISTKSGDWKSKCFYTTDTECDLTDEIVKDVKQTYLARVFSYPAGNVESTGSAGEPLYENSPEFTPYLETNLGQPTIQSFEQVGTKVNVTVEDERTLVRRNNTFLSLRDVFGKDLIYTLYYWKSSSSGKKTAKTNTNEFLIDVDKGENYCFSVQAVIPSRTVNRKSTDSPVECMGQEKGEFRE
VH-CH1-HPC4: EVRLVESGGGLVQPGGSLKLSCATSGFTFSDYFMYWIRQTPEKRLEWVAYISNGGDSSSYPDTVKGRFTISRDNAKNTLYLQMSRLKSEDTAMYYCATNKNWDDYYDMDYWGQGTSVTVSSASTKGPSVFPLAPCSRSTSESTAALGCLVKDYFPEPVTVSWNSGALTSGVHTFPAVLQSSGLYSLSSVVTVPSSSLGTKTYTCNVDHKPSNTKVDKRVESKEDQVDPRLIDGK
B6: Fab 0023-LC-L6-TF;VH-CH1-HPC4 (other)
light chain-linker-TF: DIVVSQSPSSLAVSAGEKVTMSCKSSQSLLNSRTRKNYLAWYQQKPGQSPKLLIYWASTRESGVPDRFTGSGSGTDFTLTISSVQAEDLAVYYCKQSYNLLTFGAGTKLELKRTVAAPSVFIFPPSDEQLKSGTASVVCLLNNFYPREAKVQWKVDNALQSGNSQESVTEQDSKDSTYSLSSTLTLSKADYEKHKVYACEVTHQGLSSPVTKSFNRGECGGGGSGGGGSGSGGGGSGGGGSGGGGSSGTTNTVAAYNLTWKSTNFKTILEWEPKPVNQVYTVQISTKSGDWKSKCFYTTDTECDLTDEIVKDVKQTYLARVFSYPAGNVESTGSAGEPLYENSPEFTPYLETNLGQPTIQSFEQVGTKVNVTVEDERTLVRRNNTFLSLRDVFGKDLIYTLYYWKSSSSGKKTAKTNTNEFLIDVDKGENYCFSVQAVIPSRTVNRKSTDSPVECMGQEKGEFRE
VH-CH1-HPC4: B5 VH-CH1-HPC4
B7: Fab 0023-LC-L4a-TF;VH-CH1-HPC4 (other)
light chain-linker-TF: DIVVSQSPSSLAVSAGEKVTMSCKSSQSLLNSRTRKNYLAWYQQKPGQSPKLLIYWASTRESGVPDRFTGSGSGTDFTLTISSVQAEDLAVYYCKQSYNLLTFGAGTKLELKRTVAAPSVFIFPPSDEQLKSGTASVVCLLNNFYPREAKVQWKVDNALQSGNSQESVTEQDSKDSTYSLSSTLTLSKADYEKHKVYACEVTHQGLSSPVTKSFNRGECGSGGGGSGGGGSGGGGSSGTTNTVAAYNLTWKSTNFKTILEWEPKPVNQVYTVQISTKSGDWKSKCFYTTDTECDLTDEIVKDVKQTYLARVFSYPAGNVESTGSAGEPLYENSPEFTPYLETNLGQPTIQSFEQVGTKVNVTVEDERTLVRRNNTFLSLRDVFGKDLIYTLYYWKSSSSGKKTAKTNTNEFLIDVDKGENYCFSVQAVIPSRTVNRKSTDSPVECMGQEKGEFRE
VH-CH1-HPC4: B5 VH-CH1-HPC4
B8: Fab 0051-LC-L4a-TF;VH-CH1-HPC4 (other)
light chain-linker-TF: SIVMTQTPKFLLVSAGDRVTITCKASQSVSNDVAWYQQKPGQSPKLLINYASSRYTGIPDRFTGSGYGTDFTFTISTVQAEDLAVYFCQQDYSSPYTFGGGTKLEIERTVAAPSVFIFPPSDEQLKSGTASVVCLLNNFYPREAKVQWKVDNALQSGNSQESVTEQDSKDSTYSLSSTLTLSKADYEKHKVYACEVTHQGLSSPVTKSFNRGECGSGGGGSGGGGSGGGGSSGTTNTVAAYNLTWKSTNFKTILEWEPKPVNQVYTVQISTKSGDWKSKCFYTTDTECDLTDEIVKDVKQTYLARVFSYPAGNVESTGSAGEPLYENSPEFTPYLETNLGQPTIQSFEQVGTKVNVTVEDERTLVRRNNTFLSLRDVFGKDLIYTLYYWKSSSSGKKTAKTNTNEFLIDVDKGENYCFSVQAVIPSRTVNRKSTDSPVECMGQEKGEFRE
VH-CH1-HPC4: QVQLEQSGAELVRPGVSVKISCKGSGYTFTDYSMHWVKQSHAKSLEWIGVISTYYGDVRYNQKFKGKATMTVDKSSSTAYMALARLTSEDSAIYYCARAPMITTGAWFAYWGQGTLVTVSAASTKGPSVFPLAPCSRSTSESTAALGCLVKDYFPEPVTVSWNSGALTSGVHTFPAVLQSSGLYSLSSVVTVPSSSLGTKTYTCNVDHKPSNTKVDKRVESKEDQVDPRLIDGK

Legend:
[1] = target: T1, TLT-1 18-188 relipidated in 20:80 PS:PC …; experiment: cell-based or functional assay
[2] = target: T2, TLT-1 receptor on the surface of …; experiment: cell-based or functional assay

Binder	FVII-mediated FXa generation % Activity lipidated TLT-1 [1]	FVIIa-mediated FXa generation % Activity lipidated TLT-1 [1]	FVII-mediated FXa generation % Activity activated plts (n 1) [2]	FVIIa-mediated FXa generation % Activity activated plts (n 1) [2]
B1	60%	72%		
B2	103%	103%	40%	57%
B3	101%	101%	39%	62%
B4	90%	98%		132%
B5	26%	42%	20%	43%
B6	27%	44%	20%	45%
B7	24%	40%	21%	21%
B8	22%	43%		
